Measured values from patent US20210032329A1.

How the values were obtained:
[1] = target: marmoset SEMA4D-His (marmoset); test: BIACORE; antibody captured with goat anti-human IgG Fc, marmoset SEMA4D-His as analyte (second row for this antibody)
rat SEMA4D-His (rat) = test: receptor blocking; antibody dilution series pre-incubated with SEMA4D-His, binding to 293PLXNB1 cells (Plexin B1) read by flow cytometry
mouse SEMA4D-His (mouse) = mouse SEMA4D-His (mouse) (UniProt O09126); test: as above
human SEMA4D-His (human) = human SEMA4D-His (human) (UniProt Q92854); test: as above
[2] = target: cynomolgus monkey SEMA4D-His (cynomolgus monkey); test: as above
[3] = target: marmoset SEMA4D-His (marmoset); test: BIACORE; antibody captured with goat anti-human IgG Fc, marmoset SEMA4D-His as analyte

Chain of marmoset SEMA4D-His (marmoset) (chain, as listed by the source): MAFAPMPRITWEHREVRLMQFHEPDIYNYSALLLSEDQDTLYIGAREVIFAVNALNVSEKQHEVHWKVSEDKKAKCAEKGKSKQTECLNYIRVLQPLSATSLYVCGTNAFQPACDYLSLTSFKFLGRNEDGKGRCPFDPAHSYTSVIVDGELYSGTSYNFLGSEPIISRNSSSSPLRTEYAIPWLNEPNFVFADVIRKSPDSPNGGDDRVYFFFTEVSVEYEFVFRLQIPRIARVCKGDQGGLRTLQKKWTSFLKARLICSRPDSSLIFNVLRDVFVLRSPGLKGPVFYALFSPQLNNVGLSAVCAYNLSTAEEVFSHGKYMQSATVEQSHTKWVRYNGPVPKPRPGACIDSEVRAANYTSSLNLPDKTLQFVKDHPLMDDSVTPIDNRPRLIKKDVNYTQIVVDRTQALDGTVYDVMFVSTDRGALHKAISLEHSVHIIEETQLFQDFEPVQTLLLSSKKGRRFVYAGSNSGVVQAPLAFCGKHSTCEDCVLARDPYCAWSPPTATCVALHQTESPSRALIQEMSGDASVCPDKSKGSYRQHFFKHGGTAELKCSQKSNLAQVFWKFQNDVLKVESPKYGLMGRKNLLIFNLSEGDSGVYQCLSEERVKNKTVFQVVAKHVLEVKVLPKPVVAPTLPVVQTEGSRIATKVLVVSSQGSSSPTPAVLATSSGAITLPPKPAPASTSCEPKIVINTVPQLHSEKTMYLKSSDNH
Chain of rat SEMA4D-His (rat) (chain, as listed by the source): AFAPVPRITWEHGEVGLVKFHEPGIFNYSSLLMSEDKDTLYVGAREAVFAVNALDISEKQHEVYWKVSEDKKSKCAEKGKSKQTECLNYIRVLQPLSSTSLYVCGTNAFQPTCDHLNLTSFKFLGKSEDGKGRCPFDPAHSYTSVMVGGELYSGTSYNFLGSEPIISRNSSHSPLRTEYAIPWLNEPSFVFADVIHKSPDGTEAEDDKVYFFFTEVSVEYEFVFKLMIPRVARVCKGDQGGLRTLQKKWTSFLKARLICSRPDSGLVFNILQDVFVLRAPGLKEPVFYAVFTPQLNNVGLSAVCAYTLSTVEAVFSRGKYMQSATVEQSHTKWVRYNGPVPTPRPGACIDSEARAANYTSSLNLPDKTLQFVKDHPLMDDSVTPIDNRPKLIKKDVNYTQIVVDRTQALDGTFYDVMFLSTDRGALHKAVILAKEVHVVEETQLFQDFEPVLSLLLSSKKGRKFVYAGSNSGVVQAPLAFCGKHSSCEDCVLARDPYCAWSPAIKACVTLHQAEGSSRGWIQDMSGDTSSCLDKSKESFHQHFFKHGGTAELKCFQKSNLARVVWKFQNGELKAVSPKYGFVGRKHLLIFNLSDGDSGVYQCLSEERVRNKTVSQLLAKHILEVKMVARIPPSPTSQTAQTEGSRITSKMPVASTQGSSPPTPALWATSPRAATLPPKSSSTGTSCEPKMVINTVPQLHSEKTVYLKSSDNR
Chain of human SEMA4D-His (human) (Q92854 22-734 limits assumed): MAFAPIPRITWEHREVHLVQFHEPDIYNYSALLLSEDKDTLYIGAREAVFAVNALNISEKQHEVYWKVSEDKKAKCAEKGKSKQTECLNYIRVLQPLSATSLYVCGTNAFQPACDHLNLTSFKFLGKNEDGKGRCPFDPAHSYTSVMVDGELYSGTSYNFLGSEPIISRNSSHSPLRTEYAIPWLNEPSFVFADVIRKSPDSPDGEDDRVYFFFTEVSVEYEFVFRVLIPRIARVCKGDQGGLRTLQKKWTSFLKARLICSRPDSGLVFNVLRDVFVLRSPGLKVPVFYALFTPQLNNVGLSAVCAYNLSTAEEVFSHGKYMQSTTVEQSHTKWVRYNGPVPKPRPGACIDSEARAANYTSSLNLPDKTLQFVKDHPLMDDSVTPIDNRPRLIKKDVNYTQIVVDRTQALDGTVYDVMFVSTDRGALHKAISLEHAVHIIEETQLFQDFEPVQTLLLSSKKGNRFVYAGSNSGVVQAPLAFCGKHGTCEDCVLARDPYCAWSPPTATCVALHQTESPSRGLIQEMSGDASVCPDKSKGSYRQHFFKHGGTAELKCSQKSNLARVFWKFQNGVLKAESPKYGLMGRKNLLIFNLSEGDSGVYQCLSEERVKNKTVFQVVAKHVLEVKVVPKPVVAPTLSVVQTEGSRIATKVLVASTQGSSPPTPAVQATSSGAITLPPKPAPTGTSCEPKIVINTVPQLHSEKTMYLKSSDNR
Chain of mouse SEMA4D-His (mouse) (O09126 24-733 limits assumed): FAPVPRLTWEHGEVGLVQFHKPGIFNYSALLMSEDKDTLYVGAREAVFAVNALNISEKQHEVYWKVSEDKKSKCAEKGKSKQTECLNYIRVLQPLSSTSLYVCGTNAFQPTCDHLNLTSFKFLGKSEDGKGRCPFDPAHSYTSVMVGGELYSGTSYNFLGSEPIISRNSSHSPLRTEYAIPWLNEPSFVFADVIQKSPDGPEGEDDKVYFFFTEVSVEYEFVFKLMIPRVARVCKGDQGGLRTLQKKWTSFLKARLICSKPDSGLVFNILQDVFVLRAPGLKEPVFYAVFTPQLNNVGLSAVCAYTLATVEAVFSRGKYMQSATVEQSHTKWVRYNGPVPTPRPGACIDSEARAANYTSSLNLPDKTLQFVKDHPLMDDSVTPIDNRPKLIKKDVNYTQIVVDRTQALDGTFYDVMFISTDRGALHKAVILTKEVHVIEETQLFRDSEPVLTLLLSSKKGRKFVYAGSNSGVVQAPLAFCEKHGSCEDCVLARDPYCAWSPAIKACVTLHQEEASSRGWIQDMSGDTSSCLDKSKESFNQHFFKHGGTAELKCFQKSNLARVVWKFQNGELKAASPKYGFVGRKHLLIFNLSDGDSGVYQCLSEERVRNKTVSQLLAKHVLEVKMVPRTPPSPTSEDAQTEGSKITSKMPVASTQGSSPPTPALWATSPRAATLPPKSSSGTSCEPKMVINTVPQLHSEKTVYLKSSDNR

Ka [1]: 2.4e+08 M⁻¹ | Kd [1]: 4.17 nM | koff [1]: 0.00126 s⁻¹ | kon [1]: 302000 M⁻¹ s⁻¹ | EC50 (rat SEMA4D-His (rat)): 0.6 nM | EC50 (mouse SEMA4D-His (mouse)): 0.4 nM | EC50 (human SEMA4D-His (human)): 0.3 nM | EC50 [2]: 0.5 nM | Ka [3]: 2.06e+08 M⁻¹ | Kd [3]: 4.86 nM | koff [3]: 0.00118 s⁻¹ | kon [3]: 243000 M⁻¹ s⁻¹
B1: humanized MAb 2503 (VX15/2503) (antibody, INN chains, looked up, V domains shown)
VH: QVQLVQSGAEVKKPGSSVKVSCKASGYSFSDYYMHWVRQAPGQGLEWMGQINPTTGGASYNQKFKGKATITVDKSTSTAYMELSSLRSEDTAVYYCARYYYGRHFDVWGQGTTVTVSS
VL: DIVMTQSPDSLAVSLGERATINCKASQSVDYDGDSYMNWYQQKPGQPPKLLIYAASNLESGVPDRFSGSGSGTDFTLTISSLQAEDVAVYYCQQSNEDPYTFGQGTKLEIK
